According to patent US20260176659A1, “IMPROVED METHOD FOR THE PRODUCTION OF NATURAL VANILLIN” (BASE SE, priority 2022, published 2026):

Experiment: Bioconversion of eugenol to vanillin: one-pot concurrent cascade EUGO + alkene cleavage oxygenase (5 mM scale)
Format: biochemical
Settings: for Reaction composition at 24 hours (%) 1a / Reaction composition at 24 hours (%) 2a / Reaction composition at 24 hours (%) 3a / Reaction composition at 24 hours (%) 5a / Conversion of 1a to 3a (%): 5 mM 1a; for Conversion of 1a to 3a (%): 24 h; for Reaction composition after 24 hours 1a (%) / Reaction composition after 24 hours 2a (%) / Reaction composition after 24 hours 3a (%) / Reaction composition after 24 hours 5a (%): Table 8a, CO-XX FD-CFE 1 mg/mL; for Reaction composition after 24 hours 1a (%) / Reaction composition after 24 hours 2a (%) / Reaction composition after 24 hours 3a (%) / Reaction composition after 24 hours 5a (%) / Product distribution after 24 hours 2a (%) / Product distribution after 24 hours 3a (%) / Product distribution after 24 hours 5a (%): eugenol 5 mM; for Product distribution after 24 hours 2a (%) / Product distribution after 24 hours 3a (%) / Product distribution after 24 hours 5a (%): Table 8b, CO-0X FD-CFE 1 mg/mL
Outline: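 Cell-free extracts of EUGO (0.5 mg) and cleavage oxygenase (3 mg) were combined with catalase, 1 mM FeSO4 and 1 mM ascorbate in glycine-NaOH pH 9.0 (or Tris-HCl pH 8.0). The cascade ran with 5 mM eugenol (5% ethanol/DMSO cosolvent) at 30° C and 120 rpm overnight. Methanol-quenched samples were analysed by HPLC at 280/340 nm.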

[1] = EUGO 0 mg/mL, IECO fresh CFE 4 mg/mL, cosolvent DMSO 5% v/v
[2] = EUGO 0 mg/mL, IECO fresh CFE 4 mg/mL, cosolvent EtOH 5% v/v
[3] = EUGO FD-CFE 1 mg/mL (row prints 2, see doubts), IECO FD-CFE 4 mg/mL, pH 9.0, catalase 10 mg/mL
[4] = EUGO FD-CFE 1 mg/mL, IECO FD-CFE 4 mg/mL, pH 8.0, catalase 10 mg/mL
[5] = EUGO FD-CFE 1 mg/mL, IECO FD-CFE 6 mg/mL, pH 8.0, catalase 10 mg/mL
[6] = EUGO FD-CFE 1 mg/mL, IECO FD-CFE 6 mg/mL, pH 9.0, catalase 10 mg/mL
[7] = EUGO FD-CFE 2 mg/mL, IECO FD-CFE 4 mg/mL, pH 8.0, catalase 10 mg/mL
[8] = EUGO FD-CFE 2 mg/mL, IECO FD-CFE 4 mg/mL, pH 9.0, catalase 10 mg/mL
[9] = EUGO FD-CFE 2 mg/mL, IECO FD-CFE 6 mg/mL, pH 8.0, catalase 10 mg/mL
[10] = EUGO FD-CFE 2 mg/mL, IECO FD-CFE 6 mg/mL, pH 9.0, catalase 10 mg/mL
[11] = EUGO FD-CFE 5 mg/mL, IECO FD-CFE 20 mg/mL, pH 8.0, catalase 10 mg/mL
[12] = EUGO FD-CFE 5 mg/mL, IECO FD-CFE 20 mg/mL, pH 9.0, catalase 10 mg/mL
[13] = EUGO fresh CFE 1 mg/mL, IECO fresh CFE 4 mg/mL, cosolvent DMSO 5% v/v
[14] = EUGO fresh CFE 1 mg/mL, IECO fresh CFE 4 mg/mL, cosolvent EtOH 5% v/v
[15] = EUGO FD-CFE 1 mg/mL, catalase 10 mg/mL, pH 8.0
[16] = EUGO FD-CFE 1 mg/mL, catalase 10 mg/mL, pH 9.0
[17] = replicates of concurrent cascade with EUGO, pH 8.0, SD of four experiments
[18] = replicates of concurrent cascade with EUGO, pH 9.0, SD of four experiments

B1: IECO: isoeugenol cleavage oxygenase from Pseudomonas nitroreducens (GenBank: ACP17973), SEQ ID NO: 24 (protein, listed as Pseudomonas nitroreducens)
chain: MARLNRNDPQLVGTLLPTRIEADLFDLEVDGEIPKSINGTFYRNTPEPQVTPQKFHTFIDGDGMASAFHFEDGHVDFISRWVKTARFTAERLARKSLFGMYRNPYTDDTSVKGLDRTVANTSIISHHGKVLAVKEDGLPYELDPRTLETRGRFDYDGQVTSQTHTAHPKYDPETGDLLFFGSAAKGEATPDMAYYIVDKHGKVTHETWFEQPYGAFMHDFAITRNWSIFPIMPATNSLSRLKAKQPIYMWEPELGSYIGVLPRRGQGSQIRWLKAPALWVFHVVNAWEVGTKIYIDLMESEILPFPFPNSQNQPFAPEKAVPRLTRWEIDLDSSSDEIKRTRLHDFFAEMPIMDFRFALQCNRYGFMGVDDPRKPLAHQQAEKIFAYNSLGIWDNHRGDYDLWYSGEASAAQEPAFVPRSPTAAEGDGYLLTVVGRLDENRSDLVILDTQDIQSGPVATIKLPFRLRAALHGCWVPRP
[1]
  Reaction composition at 24 hours (%) 1a: 97%
  Reaction composition at 24 hours (%) 2a: 2≤ %
  Reaction composition at 24 hours (%) 3a: 1≤ %
  Reaction composition at 24 hours (%) 5a: 1≤ %
  Conversion of 1a to 3a (%): 1≤ %
[2]
  Reaction composition at 24 hours (%) 1a: 97%
  Reaction composition at 24 hours (%) 2a: 2≤ %
  Reaction composition at 24 hours (%) 3a: 1≤ %
  Reaction composition at 24 hours (%) 5a: 1≤ %
  Conversion of 1a to 3a (%): 1≤ %
[3]
  Reaction composition at 24 hours (%) 1a: 2%
  Reaction composition at 24 hours (%) 2a: 3%
  Reaction composition at 24 hours (%) 3a: 53%
  Reaction composition at 24 hours (%) 5a: 1≤ %
  Conversion of 1a to 3a (%): 45%
[4]
  Reaction composition at 24 hours (%) 1a: 1%
  Reaction composition at 24 hours (%) 2a: 5%
  Reaction composition at 24 hours (%) 3a: 45%
  Reaction composition at 24 hours (%) 5a: 1≤ %
  Conversion of 1a to 3a (%): 40%
[5]
  Reaction composition at 24 hours (%) 1a: 2%
  Reaction composition at 24 hours (%) 2a: 4%
  Reaction composition at 24 hours (%) 3a: 49%
  Reaction composition at 24 hours (%) 5a: 1%
  Conversion of 1a to 3a (%): 44%
[6]
  Reaction composition at 24 hours (%) 1a: 3%
  Reaction composition at 24 hours (%) 2a: 3%
  Reaction composition at 24 hours (%) 3a: 59%
  Reaction composition at 24 hours (%) 5a: 1%
  Conversion of 1a to 3a (%): 50%
[7]
  Reaction composition at 24 hours (%) 1a: 2%
  Reaction composition at 24 hours (%) 2a: 4%
  Reaction composition at 24 hours (%) 3a: 48%
  Reaction composition at 24 hours (%) 5a: 2%
  Conversion of 1a to 3a (%): 40%
[8]
  Reaction composition at 24 hours (%) 1a: 1%
  Reaction composition at 24 hours (%) 2a: 4%
  Reaction composition at 24 hours (%) 3a: 52%
  Reaction composition at 24 hours (%) 5a: 2%
  Conversion of 1a to 3a (%): 44%
[9]
  Reaction composition at 24 hours (%) 1a: 3%
  Reaction composition at 24 hours (%) 2a: 5%
  Reaction composition at 24 hours (%) 3a: 44%
  Reaction composition at 24 hours (%) 5a: 3%
  Conversion of 1a to 3a (%): 41%
[10]
  Reaction composition at 24 hours (%) 1a: 3%
  Reaction composition at 24 hours (%) 2a: 4%
  Reaction composition at 24 hours (%) 3a: 50%
  Reaction composition at 24 hours (%) 5a: 2%
  Conversion of 1a to 3a (%): 49%
[11]
  Reaction composition at 24 hours (%) 1a: 1≤ %
  Reaction composition at 24 hours (%) 2a: 27%
  Reaction composition at 24 hours (%) 3a: 9%
  Reaction composition at 24 hours (%) 5a: 6%
  Conversion of 1a to 3a (%): 8%
[12]
  Reaction composition at 24 hours (%) 1a: 1≤ %
  Reaction composition at 24 hours (%) 2a: 18%
  Reaction composition at 24 hours (%) 3a: 15%
  Reaction composition at 24 hours (%) 5a: 5%
  Conversion of 1a to 3a (%): 13%
[13]
  Reaction composition at 24 hours (%) 1a: 3%
  Reaction composition at 24 hours (%) 2a: 49%
  Reaction composition at 24 hours (%) 3a: 44 ^ %
  Reaction composition at 24 hours (%) 5a: 4%
  Conversion of 1a to 3a (%): 42 ^ %
[14]
  Reaction composition at 24 hours (%) 1a: 4%
  Reaction composition at 24 hours (%) 2a: 5%
  Reaction composition at 24 hours (%) 3a: 86 ^ %
  Reaction composition at 24 hours (%) 5a: 5%
  Conversion of 1a to 3a (%): 48 ^ %
[15]
  Reaction composition after 24 hours 1a (%): 51%
  Reaction composition after 24 hours 2a (%): 52%
  Reaction composition after 24 hours 3a (%): 36%
  Reaction composition after 24 hours 5a (%): 12%
  Product distribution after 24 hours 2a (%): 67.8%
  Product distribution after 24 hours 3a (%): 17.6%
  Product distribution after 24 hours 5a (%): 14.6%
[16]
  Reaction composition after 24 hours 1a (%): ≤1%
  Reaction composition after 24 hours 2a (%): 24%
  Reaction composition after 24 hours 3a (%): 59%
  Reaction composition after 24 hours 5a (%): 18%
  Product distribution after 24 hours 2a (%): 49.4%
  Product distribution after 24 hours 3a (%): 30.7%
  Product distribution after 24 hours 5a (%): 19.9%
[17]
  Conversion of 1a to 3a (%): 31 ± 2%
  Reaction composition at 24 hours (%) 1a: 1≤ %
  Reaction composition at 24 hours (%) 2a: 51 ± 2%
  Reaction composition at 24 hours (%) 3a: 34 ± 2%
  Reaction composition at 24 hours (%) 5a: 15 ± 3%
[18]
  Conversion of 1a to 3a (%): 52 ± 3%
  Reaction composition at 24 hours (%) 1a: 1≤ %
  Reaction composition at 24 hours (%) 2a: 22 ± 2%
  Reaction composition at 24 hours (%) 3a: 59 ± 1%
  Reaction composition at 24 hours (%) 5a: 18 ± 1%
With EUGO, 5 mM substrate concentration
  overall conversion of 1a to vanillin 3a in the 2-step cascade: 50%
